In patent US20130183334A1:

Columns and labels:
Test in all cases: cell-based or functional assay
[1] = biological target: HIV-1 NL4-3 Gag with HIV-1/SIVmac239 p6 chimera 17-23(b) (HIV-1 (NL4-3); SIVmac239)
[2] = biological target: HIV-1 NL4-3 Gag with HIV-1/SIVmac239 p6 chimera 17-24 (HIV-1 (NL4-3); SIVmac239)
[3] = biological target: HIV-1 NL4-3 Gag with HIV-1/SIVmac239 p6 chimera 17-25 (HIV-1 (NL4-3); SIVmac239)
[4] = biological target: HIV-1 NL4-3 Gag with HIV-1/SIVmac239 p6 chimera 17-26 (HIV-1 (NL4-3); SIVmac239)
[5] = biological target: HIV-1 NL4-3 Gag with HIV-1/SIVmac239 p6 chimera 17-27 (HIV-1 (NL4-3); SIVmac239)
[6] = biological target: HIV-1 NL4-3 Gag with HIV-1/SIVmac239 p6 chimera 17-28 (HIV-1 (NL4-3); SIVmac239)
[7] = biological target: HIV-1 NL4-3 Gag with HIV-1/SIVmac239 p6 chimera 17-38 (HIV-1 (NL4-3); SIVmac239)
[8] = biological target: HIV-1 NL4-3 Gag with HIV-1/SIVmac239 p6 chimera 17-48 (HIV-1 (NL4-3); SIVmac239)
[9] = biological target: HIV-1 NL4-3 Gag with p6 point mutation F15A (HIV-1 (NL4-3)) (UniProt P12493)
[10] = biological target: HIV-1 NL4-3 Gag with p6 point mutation F17A (HIV-1 (NL4-3)) (UniProt P12493)

Substance: HIV-1 Vpr, myc-tagged (expression vector pcVpr.myc)
- Vpr packaging into virions (immunoblot of pelleted virions) (fold of wild-type) [1]: 0.33
- Vpr packaging into virions (immunoblot of pelleted virions) (fold of wild-type) [2]: 0.33
- Vpr packaging into virions (immunoblot of pelleted virions) (fold of wild-type) [3]: 0.33
- Vpr packaging into virions (immunoblot of pelleted virions) (fold of wild-type) [4]: 0.33
- Vpr packaging into virions (immunoblot of pelleted virions) (fold of wild-type) [5]: 0.33
- Vpr packaging into virions (immunoblot of pelleted virions) (% of wild-type) [6]: 70
- Vpr packaging into virions (immunoblot of pelleted virions) (fold of wild-type) [7]: 0.33
- Vpr packaging into virions (immunoblot of pelleted virions) (fold of wild-type) [8]: 0.33
- Vpr packaging into virions (immunoblot of pelleted virions) (% decrease against wild-type) [9]: 80
- Vpr packaging into virions (immunoblot of pelleted virions) (% decrease against wild-type) [10]: 80
